Paper PMC5885637 (Journal of molecular biology, 2014)

Biological target: wild-type mouse PrP (residues 23-231) displayed on the yeast surface (Mus musculus, UniProt P04925)
Experiment: flow cytometry on cells

Chain of wild-type mouse PrP (residues 23-231) displayed on the yeast surface (P04925 23-231): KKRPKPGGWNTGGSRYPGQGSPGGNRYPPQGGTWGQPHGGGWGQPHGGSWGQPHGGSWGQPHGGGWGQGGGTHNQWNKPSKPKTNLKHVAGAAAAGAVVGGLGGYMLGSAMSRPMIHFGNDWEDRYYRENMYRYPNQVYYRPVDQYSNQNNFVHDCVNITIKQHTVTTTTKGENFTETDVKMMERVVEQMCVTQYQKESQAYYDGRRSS

B1: ICSM18-scFv (scFv, V domains shown)
VH: EVQLQQSGPELVKPGSSVKISCKASRNTFTDYNLDWVKQSHGKTLEWIGNVYPNNGVTGYNQKFRGKATLTVDKSSSTAYMELHSLTSEDSAVYYCALYYYDVSYWGQGTLVTVSS
VL: QIVLTQSPAIMSASPGEKVTMTCSASSSVSYMHWYQQKSGTSPKRWIYDTSKLASGVPARFSGSGSGTSYSLTISSMEAEDAATYFCHQWRSNPYTFGGGTKLEIK
Binder B1 has a Kd of 153 nM.
